Results reported in PMC5531472, “A single nucleotide polymorphism causes enhanced radical oxygen species production by human aldehyde oxidase” (PLoS ONE, 2017).

Molecular target: the molecule itself
Experiment: SEC; size exclusion chromatography on a Superdex 200 10/300 GL column after nickel-NTA purification; data not shown

Protein | stoichiometry N
human aldehyde oxidase 1 variant G46E (enzyme, human aldehyde oxidase 1 (hAOX1), protein of 1338 amino acids, SNP-based variant G46E; construct pAF4 derived from pTHcohAOX1; also called hAOX1 G46E; pAF4; source: E. coli TP1000 (ΔmobAB), purified (nickel-nitrilotriacetic acid resin, size exclusion chromatography)) MDRASELLFYVNGRKVIEKNVDPETMLLPYLRKKLRLTGTKYGCGEGGCGACTVMISRYNPITKRIRHHPANACLIPICSLYGAAVTTVEGIGSTHTRIHPVQERIAKCHGTQCGFCTPGMVMSIYTLLRNHPEPTLDQLTDALGGNLCRCTGYRPIIDACKTFCKTSGCCQSKENGVCCLDQGINGLPEFEEGSKTSPKLFAEEEFLPLDPTQELIFPPELMIMAEKQSQRTRVFGSERMMWFSPVTLKELLEFKFKYPQAPVIMGNTSVGPEVKFKGVFHPVIISPDRIEELSVVNHAYNGLTLGAGLSLAQVKDILADVVQKLPEEKTQMYHALLKHLGTLAGSQIRNMASLGGHIISRHPDSDLNPILAVGNCTLNLLSKEGKRQIPLNEQFLSKCPNADLKPQEILVSVNIPYSRKWEFVSAFRQAQRQENALAIVNSGMRVFFGEGDGIIRELCISYGGVGPATICAKNSCQKLIGRHWNEQMLDIACRLILNEVSLLGSAPGGKVEFKRTLIISFLFKFYLEVSQILKKMDPVHYPSLADKYESALEDLHSKHHCSTLKYQNIGPKQHPEDPIGHPIMHLSGVKHATGEAIYCDDMPLVDQELFLTFVTSSRAHAKIVSIDLSEALSMPGVVDIMTAEHLSDVNSFCFFTEAEKFLATDKVFCVGQLVCAVLADSEVQAKRAAKRVKIVYQDLEPLILTIEESIQHNSSFKPERKLEYGNVDEAFKVVDQILEGEIHMGGQEHFYMETQSMLVVPKGEDQEMDVYVSTQFPKYIQDIVASTLKLPANKVMCHVRRVGGAFGGKVLKTGIIAAVTAFAANKHGRAVRCVLERGEDMLITGGRHPYLGKYKAGFMNDGRILALDMEHYSNAGASLDESLFVIEMGLLKMDNAYKFPNLRCRGWACRTNLPSNTAFRGFGFPQAALITESCITEVAAKCGLSPEKVRIINMYKEIDQTPYKQEINAKNLIQCWRECMAMSSYSLRKVAVEKFNAENYWKKKGLAMVPLKFPVGLGSRAAGQAAALVHIYLDGSVLVTHGGIEMGQGVHTKMIQVVSRELRMPMSNVHLRGTSTETVPNANISGGSVVADLNGLAVKDACQTLLKRLEPIISKNPKGTWKDWAQTAFDESINLSAVGYFRGYESDMNWEKGEGQPFEYFVYGAACSEVEIDCLTGDHKNIRTDIVMDVGCSINPAIDIGQIEGAFIQGMGLYTIEELNYSPQGILHTRGPDQYKIPAICDMPTELHIALLPPSQNSNTLYSSKGLGESGVFLGCSVFFAIHDAVSAARQERGLHGPLTLNSPLTPEKIRMACEDKFTKMIPRDEPGSYVPWNVPI | 2
human aldehyde oxidase 1 variant G50D (enzyme, human aldehyde oxidase 1 (hAOX1), protein of 1338 amino acids, SNP-based variant G50D; construct pAF5 derived from pTHcohAOX1; purified with a 10-fold lower yield than the other variants; also called hAOX1 G50D; hAOX1-G50D; source: E. coli TP1000 (ΔmobAB), purified (nickel-nitrilotriacetic acid resin, size exclusion chromatography)) MDRASELLFYVNGRKVIEKNVDPETMLLPYLRKKLRLTGTKYGCGGGGCDACTVMISRYNPITKRIRHHPANACLIPICSLYGAAVTTVEGIGSTHTRIHPVQERIAKCHGTQCGFCTPGMVMSIYTLLRNHPEPTLDQLTDALGGNLCRCTGYRPIIDACKTFCKTSGCCQSKENGVCCLDQGINGLPEFEEGSKTSPKLFAEEEFLPLDPTQELIFPPELMIMAEKQSQRTRVFGSERMMWFSPVTLKELLEFKFKYPQAPVIMGNTSVGPEVKFKGVFHPVIISPDRIEELSVVNHAYNGLTLGAGLSLAQVKDILADVVQKLPEEKTQMYHALLKHLGTLAGSQIRNMASLGGHIISRHPDSDLNPILAVGNCTLNLLSKEGKRQIPLNEQFLSKCPNADLKPQEILVSVNIPYSRKWEFVSAFRQAQRQENALAIVNSGMRVFFGEGDGIIRELCISYGGVGPATICAKNSCQKLIGRHWNEQMLDIACRLILNEVSLLGSAPGGKVEFKRTLIISFLFKFYLEVSQILKKMDPVHYPSLADKYESALEDLHSKHHCSTLKYQNIGPKQHPEDPIGHPIMHLSGVKHATGEAIYCDDMPLVDQELFLTFVTSSRAHAKIVSIDLSEALSMPGVVDIMTAEHLSDVNSFCFFTEAEKFLATDKVFCVGQLVCAVLADSEVQAKRAAKRVKIVYQDLEPLILTIEESIQHNSSFKPERKLEYGNVDEAFKVVDQILEGEIHMGGQEHFYMETQSMLVVPKGEDQEMDVYVSTQFPKYIQDIVASTLKLPANKVMCHVRRVGGAFGGKVLKTGIIAAVTAFAANKHGRAVRCVLERGEDMLITGGRHPYLGKYKAGFMNDGRILALDMEHYSNAGASLDESLFVIEMGLLKMDNAYKFPNLRCRGWACRTNLPSNTAFRGFGFPQAALITESCITEVAAKCGLSPEKVRIINMYKEIDQTPYKQEINAKNLIQCWRECMAMSSYSLRKVAVEKFNAENYWKKKGLAMVPLKFPVGLGSRAAGQAAALVHIYLDGSVLVTHGGIEMGQGVHTKMIQVVSRELRMPMSNVHLRGTSTETVPNANISGGSVVADLNGLAVKDACQTLLKRLEPIISKNPKGTWKDWAQTAFDESINLSAVGYFRGYESDMNWEKGEGQPFEYFVYGAACSEVEIDCLTGDHKNIRTDIVMDVGCSINPAIDIGQIEGAFIQGMGLYTIEELNYSPQGILHTRGPDQYKIPAICDMPTELHIALLPPSQNSNTLYSSKGLGESGVFLGCSVFFAIHDAVSAARQERGLHGPLTLNSPLTPEKIRMACEDKFTKMIPRDEPGSYVPWNVPI | 2
human aldehyde oxidase 1 variant K1237N (enzyme, human aldehyde oxidase 1 (hAOX1), protein of 1338 amino acids, SNP-based variant K1237N; construct pAF13 derived from pTHcohAOX1; also called hAOX1 K1237N; pAF13; source: E. coli TP1000 (ΔmobAB), purified (nickel-nitrilotriacetic acid resin, size exclusion chromatography)) MDRASELLFYVNGRKVIEKNVDPETMLLPYLRKKLRLTGTKYGCGGGGCGACTVMISRYNPITKRIRHHPANACLIPICSLYGAAVTTVEGIGSTHTRIHPVQERIAKCHGTQCGFCTPGMVMSIYTLLRNHPEPTLDQLTDALGGNLCRCTGYRPIIDACKTFCKTSGCCQSKENGVCCLDQGINGLPEFEEGSKTSPKLFAEEEFLPLDPTQELIFPPELMIMAEKQSQRTRVFGSERMMWFSPVTLKELLEFKFKYPQAPVIMGNTSVGPEVKFKGVFHPVIISPDRIEELSVVNHAYNGLTLGAGLSLAQVKDILADVVQKLPEEKTQMYHALLKHLGTLAGSQIRNMASLGGHIISRHPDSDLNPILAVGNCTLNLLSKEGKRQIPLNEQFLSKCPNADLKPQEILVSVNIPYSRKWEFVSAFRQAQRQENALAIVNSGMRVFFGEGDGIIRELCISYGGVGPATICAKNSCQKLIGRHWNEQMLDIACRLILNEVSLLGSAPGGKVEFKRTLIISFLFKFYLEVSQILKKMDPVHYPSLADKYESALEDLHSKHHCSTLKYQNIGPKQHPEDPIGHPIMHLSGVKHATGEAIYCDDMPLVDQELFLTFVTSSRAHAKIVSIDLSEALSMPGVVDIMTAEHLSDVNSFCFFTEAEKFLATDKVFCVGQLVCAVLADSEVQAKRAAKRVKIVYQDLEPLILTIEESIQHNSSFKPERKLEYGNVDEAFKVVDQILEGEIHMGGQEHFYMETQSMLVVPKGEDQEMDVYVSTQFPKYIQDIVASTLKLPANKVMCHVRRVGGAFGGKVLKTGIIAAVTAFAANKHGRAVRCVLERGEDMLITGGRHPYLGKYKAGFMNDGRILALDMEHYSNAGASLDESLFVIEMGLLKMDNAYKFPNLRCRGWACRTNLPSNTAFRGFGFPQAALITESCITEVAAKCGLSPEKVRIINMYKEIDQTPYKQEINAKNLIQCWRECMAMSSYSLRKVAVEKFNAENYWKKKGLAMVPLKFPVGLGSRAAGQAAALVHIYLDGSVLVTHGGIEMGQGVHTKMIQVVSRELRMPMSNVHLRGTSTETVPNANISGGSVVADLNGLAVKDACQTLLKRLEPIISKNPKGTWKDWAQTAFDESINLSAVGYFRGYESDMNWEKGEGQPFEYFVYGAACSEVEIDCLTGDHKNIRTDIVMDVGCSINPAIDIGQIEGAFIQGMGLYTIEELNYSPQGILHTRGPDQYNIPAICDMPTELHIALLPPSQNSNTLYSSKGLGESGVFLGCSVFFAIHDAVSAARQERGLHGPLTLNSPLTPEKIRMACEDKFTKMIPRDEPGSYVPWNVPI | 2
human aldehyde oxidase 1 variant G346R (enzyme, human aldehyde oxidase 1 (hAOX1), protein of 1338 amino acids, SNP-based variant G346R; construct pAF6 derived from pTHcohAOX1; also called hAOX1 G346R; pAF6; source: E. coli TP1000 (ΔmobAB), purified (nickel-nitrilotriacetic acid resin, size exclusion chromatography)) MDRASELLFYVNGRKVIEKNVDPETMLLPYLRKKLRLTGTKYGCGGGGCGACTVMISRYNPITKRIRHHPANACLIPICSLYGAAVTTVEGIGSTHTRIHPVQERIAKCHGTQCGFCTPGMVMSIYTLLRNHPEPTLDQLTDALGGNLCRCTGYRPIIDACKTFCKTSGCCQSKENGVCCLDQGINGLPEFEEGSKTSPKLFAEEEFLPLDPTQELIFPPELMIMAEKQSQRTRVFGSERMMWFSPVTLKELLEFKFKYPQAPVIMGNTSVGPEVKFKGVFHPVIISPDRIEELSVVNHAYNGLTLGAGLSLAQVKDILADVVQKLPEEKTQMYHALLKHLGTLARSQIRNMASLGGHIISRHPDSDLNPILAVGNCTLNLLSKEGKRQIPLNEQFLSKCPNADLKPQEILVSVNIPYSRKWEFVSAFRQAQRQENALAIVNSGMRVFFGEGDGIIRELCISYGGVGPATICAKNSCQKLIGRHWNEQMLDIACRLILNEVSLLGSAPGGKVEFKRTLIISFLFKFYLEVSQILKKMDPVHYPSLADKYESALEDLHSKHHCSTLKYQNIGPKQHPEDPIGHPIMHLSGVKHATGEAIYCDDMPLVDQELFLTFVTSSRAHAKIVSIDLSEALSMPGVVDIMTAEHLSDVNSFCFFTEAEKFLATDKVFCVGQLVCAVLADSEVQAKRAAKRVKIVYQDLEPLILTIEESIQHNSSFKPERKLEYGNVDEAFKVVDQILEGEIHMGGQEHFYMETQSMLVVPKGEDQEMDVYVSTQFPKYIQDIVASTLKLPANKVMCHVRRVGGAFGGKVLKTGIIAAVTAFAANKHGRAVRCVLERGEDMLITGGRHPYLGKYKAGFMNDGRILALDMEHYSNAGASLDESLFVIEMGLLKMDNAYKFPNLRCRGWACRTNLPSNTAFRGFGFPQAALITESCITEVAAKCGLSPEKVRIINMYKEIDQTPYKQEINAKNLIQCWRECMAMSSYSLRKVAVEKFNAENYWKKKGLAMVPLKFPVGLGSRAAGQAAALVHIYLDGSVLVTHGGIEMGQGVHTKMIQVVSRELRMPMSNVHLRGTSTETVPNANISGGSVVADLNGLAVKDACQTLLKRLEPIISKNPKGTWKDWAQTAFDESINLSAVGYFRGYESDMNWEKGEGQPFEYFVYGAACSEVEIDCLTGDHKNIRTDIVMDVGCSINPAIDIGQIEGAFIQGMGLYTIEELNYSPQGILHTRGPDQYKIPAICDMPTELHIALLPPSQNSNTLYSSKGLGESGVFLGCSVFFAIHDAVSAARQERGLHGPLTLNSPLTPEKIRMACEDKFTKMIPRDEPGSYVPWNVPI | 2
